Test results reported in article PMC3418443.

Biological target: IL-1 receptors on the surface of HIG-82 synoviocytes (rabbit (endogenous in HIG-82))
Experiment: flow cytometry on cells

Chain of IL-1β (P01584 117-269): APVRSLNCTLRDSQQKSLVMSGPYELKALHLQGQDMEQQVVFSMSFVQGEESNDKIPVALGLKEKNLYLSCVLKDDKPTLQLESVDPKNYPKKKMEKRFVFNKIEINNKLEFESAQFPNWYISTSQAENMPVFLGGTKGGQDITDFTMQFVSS

- % cells with bound IL-1Ra-particles after pre-block with IL-1β: 2.8%
Substance: IL-1β (from UniProt P01584 117-269) (ligand)
